Test results taken from patent publication US11028159B2 (priority 2017, dated 2021).

Tested on: venoms of different snake species
Assay type: binding

B1: VHH candidate against cobrotoxin: camelid (llama) single-domain VHH antibody binding cobrotoxin, SEQ ID NO 4 (protein)
VHH: MAQVQLQESGGGLAQAGGSLRLSCSASRNIFRVYGWYRQAPGKQREWVASITRDDSTAYADSVKGRFTISRDSAKNTMYLQMSSLRLEDTSTYYCAAQSISGTIQWGQGTQVTVSSTSGPGGQHHHHHHGAEQKLISEEDLS
  number of venoms of different snake species bound (ELISA): at least 6
